Test results reported in patent WO1995033832A1.

Legend:
[1] = target: recombinant Hepatitis B virus surface antigen (HBsAg) (Hepatitis B virus); assay: ELISA; scFv preincubated with HBsAg in solution, molar ratio fragment:antigen 1:0.14; inhibition of binding to coated HBsAg
[2] = target: recombinant Hepatitis B virus surface antigen (HBsAg) (Hepatitis B virus); assay: ELISA; scFv preincubated with HBsAg in solution, molar ratio fragment:antigen 1:0.7; inhibition of binding to coated HBsAg
[3] = target: recombinant Hepatitis B virus surface antigen (HBsAg) (Hepatitis B virus); assay: immunoaffinity column, scFv on Sepharose CL-4B; Expt. 2, pure HBsAg, 2 mg loaded
[4] = target: recombinant Hepatitis B virus surface antigen (HBsAg) (Hepatitis B virus); assay: immunoaffinity column, scFv on Sepharose CL-4B; Expt. 5, crude semipurified HBsAg, 2 mg loaded
[5] = target: recombinant Hepatitis B virus surface antigen (HBsAg) (Hepatitis B virus); assay: ELISA; scFv preincubated with HBsAg in solution, molar ratio fragment:antigen 1:3.5; inhibition of binding to coated HBsAg
[6] = target: recombinant Hepatitis B virus surface antigen (HBsAg) (Hepatitis B virus); assay: ELISA, plates coated with recombinant HBsAg 5 ug/ml; renatured and IMAC-purified scFv; detected with rabbit anti-Fab and Protein A-HRP
[7] = target: recombinant Hepatitis B virus surface antigen (HBsAg) (Hepatitis B virus); assay: scFv on Sepharose CL-4B; saturating pure HBsAg applied, eluted with 3 M KSCN (gel without ligand: 0.012 mg)
[8] = target: recombinant Hepatitis B virus surface antigen (HBsAg) (Hepatitis B virus); assay: ELISA on coated recombinant HBsAg
[9] = target: recombinant Hepatitis B virus surface antigen (HBsAg) (Hepatitis B virus); assay: immunoaffinity column, scFv on Sepharose CL-4B; Expt. 3, pure HBsAg, 2 mg loaded
[10] = target: recombinant Hepatitis B virus surface antigen (HBsAg) (Hepatitis B virus); assay: immunoaffinity column, scFv on Sepharose CL-4B; Expt. 6, crude semipurified HBsAg, 2 mg loaded
[11] = target: recombinant Hepatitis B virus surface antigen (HBsAg) (Hepatitis B virus); assay: immunoaffinity column, scFv on Sepharose CL-4B; Expt. 4, crude semipurified HBsAg, 2 mg loaded
[12] = target: recombinant Hepatitis B virus surface antigen (HBsAg) (Hepatitis B virus); assay: ELISA, plates coated with recombinant HBsAg 5 ug/ml; renatured scFv, not purified; detected with rabbit anti-Fab and Protein A-HRP
[13] = target: recombinant Hepatitis B virus surface antigen (HBsAg) (Hepatitis B virus); assay: ELISA; scFv without HBsAg in solution, molar ratio fragment:antigen 1:0 (reference)
[14] = target: recombinant Hepatitis B virus surface antigen (HBsAg) (Hepatitis B virus); assay: immunoaffinity column, scFv on Sepharose CL-4B; Expt. 1, pure HBsAg, 2 mg loaded

## anti-HBsAg scFv (recombinant single chain Fv antibody fragment, VH-linker-VL, from MAb CB-Hep.1, expressed in E. coli from pPACIB.1/scFv anti HBsAg)
[1]
  % inhibition: 12.8%
[2]
  % inhibition: 76.4%
[3]
  mg HBsAg eluted/ml gel (mg HBsAg eluted/ml gel): 0.34
[4]
  mg HBsAg eluted/ml gel (mg HBsAg eluted/ml gel): 0.26
[5]
  % inhibition: 95.1%
[6]
  Absorbance at 492 nm (absorbance at 492 nm): 0.68
[7]
  Amount of eluted HBsAg: 0.126 mg
[8]
  optimal binding concentration (saturation): 37 µg/mL
[9]
  mg HBsAg eluted/ml gel (mg HBsAg eluted/ml gel): 0.51
[10]
  mg HBsAg eluted/ml gel (mg HBsAg eluted/ml gel): 0.42
[11]
  mg HBsAg eluted/ml gel (mg HBsAg eluted/ml gel): 0.45
[12]
  Absorbance at 492 nm (absorbance at 492 nm): 1.54
[13]
  % inhibition: 0%
[14]
  mg HBsAg eluted/ml gel (mg HBsAg eluted/ml gel): 0.54
